Experimental data published in publication PMC5880214.

T1: mPOT1a_N (OB-fold domains of mouse POT1a) (mouse, UniProt Q91WC1 1-299)
T1 sequence: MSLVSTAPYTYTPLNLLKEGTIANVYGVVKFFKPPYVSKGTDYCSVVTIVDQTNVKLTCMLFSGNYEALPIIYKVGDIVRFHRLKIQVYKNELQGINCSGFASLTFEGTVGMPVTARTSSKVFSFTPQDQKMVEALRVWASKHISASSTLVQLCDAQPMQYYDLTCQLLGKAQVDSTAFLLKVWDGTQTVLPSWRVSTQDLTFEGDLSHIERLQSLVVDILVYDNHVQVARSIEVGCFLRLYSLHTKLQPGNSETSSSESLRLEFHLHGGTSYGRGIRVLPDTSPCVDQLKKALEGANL

T2: AtPOT1b_N (Arabidopsis thaliana, UniProt Q6NKX5 1-300)
T2 sequence: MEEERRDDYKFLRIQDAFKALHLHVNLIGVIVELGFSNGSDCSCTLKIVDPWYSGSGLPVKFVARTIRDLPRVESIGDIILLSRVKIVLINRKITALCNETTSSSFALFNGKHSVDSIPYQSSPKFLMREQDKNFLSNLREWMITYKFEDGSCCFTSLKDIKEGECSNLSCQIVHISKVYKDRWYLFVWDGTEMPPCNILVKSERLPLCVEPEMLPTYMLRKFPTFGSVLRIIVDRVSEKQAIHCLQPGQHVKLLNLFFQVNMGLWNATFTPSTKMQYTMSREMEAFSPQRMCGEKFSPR

T3: AtPOT1a (Arabidopsis thaliana, UniProt Q56Y52 1-467)
T3 sequence: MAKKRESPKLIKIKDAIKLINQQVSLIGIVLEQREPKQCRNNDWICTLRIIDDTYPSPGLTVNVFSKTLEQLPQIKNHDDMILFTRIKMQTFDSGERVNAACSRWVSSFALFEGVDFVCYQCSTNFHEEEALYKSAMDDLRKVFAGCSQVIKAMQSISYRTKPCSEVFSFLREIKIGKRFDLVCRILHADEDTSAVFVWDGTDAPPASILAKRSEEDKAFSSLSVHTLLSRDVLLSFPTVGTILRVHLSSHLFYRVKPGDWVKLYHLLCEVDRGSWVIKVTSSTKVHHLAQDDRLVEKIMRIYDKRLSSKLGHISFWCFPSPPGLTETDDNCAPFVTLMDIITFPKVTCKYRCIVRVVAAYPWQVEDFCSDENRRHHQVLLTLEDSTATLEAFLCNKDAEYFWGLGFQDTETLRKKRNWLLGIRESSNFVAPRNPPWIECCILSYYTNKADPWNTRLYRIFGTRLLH

T4: AlPOT1a (Arabidopsis lyrata, UniProt B7T1J1 1-467)
T4 sequence: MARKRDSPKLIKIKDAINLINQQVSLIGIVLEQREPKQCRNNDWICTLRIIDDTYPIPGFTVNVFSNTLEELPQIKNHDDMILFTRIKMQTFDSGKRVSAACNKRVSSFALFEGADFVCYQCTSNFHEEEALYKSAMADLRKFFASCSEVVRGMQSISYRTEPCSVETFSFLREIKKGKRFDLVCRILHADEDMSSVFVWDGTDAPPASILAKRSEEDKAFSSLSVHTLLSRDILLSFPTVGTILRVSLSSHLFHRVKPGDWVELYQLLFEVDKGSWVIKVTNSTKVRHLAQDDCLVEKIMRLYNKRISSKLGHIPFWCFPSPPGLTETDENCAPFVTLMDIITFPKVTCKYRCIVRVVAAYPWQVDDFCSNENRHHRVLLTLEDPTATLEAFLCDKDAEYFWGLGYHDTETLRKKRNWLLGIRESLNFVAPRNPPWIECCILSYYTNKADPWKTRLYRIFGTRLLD

T5: BoPOT1a (Brassica oleracea (cauliflower, …, UniProt B7T1J7 1-456))
T5 sequence: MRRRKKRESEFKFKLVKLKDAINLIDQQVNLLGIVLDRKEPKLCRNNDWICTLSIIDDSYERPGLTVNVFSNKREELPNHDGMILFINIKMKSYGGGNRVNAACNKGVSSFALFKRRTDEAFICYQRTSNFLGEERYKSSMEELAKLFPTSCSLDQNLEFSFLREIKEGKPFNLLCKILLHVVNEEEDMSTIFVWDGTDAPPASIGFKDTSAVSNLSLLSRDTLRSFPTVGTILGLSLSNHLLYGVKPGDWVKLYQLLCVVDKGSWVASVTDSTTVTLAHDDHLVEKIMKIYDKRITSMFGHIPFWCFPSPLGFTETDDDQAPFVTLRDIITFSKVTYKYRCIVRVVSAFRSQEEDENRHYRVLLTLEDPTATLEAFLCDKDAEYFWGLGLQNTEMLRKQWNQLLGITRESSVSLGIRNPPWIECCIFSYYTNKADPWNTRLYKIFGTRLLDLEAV

T6: AlPOT1b (Arabidopsis lyrata, UniProt B7T1J2 1-450)
T6 sequence: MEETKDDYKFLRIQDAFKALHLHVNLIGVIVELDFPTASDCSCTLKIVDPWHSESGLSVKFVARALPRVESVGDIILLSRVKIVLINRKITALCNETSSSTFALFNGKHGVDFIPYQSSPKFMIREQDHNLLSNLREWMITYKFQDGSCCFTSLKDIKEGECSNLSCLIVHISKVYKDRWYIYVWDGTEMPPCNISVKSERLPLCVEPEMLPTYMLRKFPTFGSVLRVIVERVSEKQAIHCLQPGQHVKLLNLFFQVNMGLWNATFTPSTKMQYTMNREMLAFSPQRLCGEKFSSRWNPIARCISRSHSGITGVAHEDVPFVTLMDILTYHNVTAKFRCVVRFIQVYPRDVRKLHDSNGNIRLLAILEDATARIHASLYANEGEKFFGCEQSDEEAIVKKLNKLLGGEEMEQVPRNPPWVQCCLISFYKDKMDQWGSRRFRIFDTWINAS

T7: AtPOT1b (Arabidopsis thaliana, UniProt Q6NKX5 1-454)
T7 sequence: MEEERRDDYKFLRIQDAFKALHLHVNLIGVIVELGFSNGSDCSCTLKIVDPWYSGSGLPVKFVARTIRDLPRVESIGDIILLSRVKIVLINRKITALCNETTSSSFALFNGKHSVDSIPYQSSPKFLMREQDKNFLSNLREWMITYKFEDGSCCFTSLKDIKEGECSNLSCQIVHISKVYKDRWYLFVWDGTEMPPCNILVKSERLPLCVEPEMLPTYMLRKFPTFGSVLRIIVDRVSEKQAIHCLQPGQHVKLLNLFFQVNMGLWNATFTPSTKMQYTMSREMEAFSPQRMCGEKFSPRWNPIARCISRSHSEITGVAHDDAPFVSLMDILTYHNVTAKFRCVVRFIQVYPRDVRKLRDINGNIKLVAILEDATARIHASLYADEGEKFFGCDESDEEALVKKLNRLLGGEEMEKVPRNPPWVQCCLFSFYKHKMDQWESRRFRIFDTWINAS

T8: BoPOT1b (Brassica oleracea (cauliflower, …, UniProt B7T1J8 1-450))
T8 sequence: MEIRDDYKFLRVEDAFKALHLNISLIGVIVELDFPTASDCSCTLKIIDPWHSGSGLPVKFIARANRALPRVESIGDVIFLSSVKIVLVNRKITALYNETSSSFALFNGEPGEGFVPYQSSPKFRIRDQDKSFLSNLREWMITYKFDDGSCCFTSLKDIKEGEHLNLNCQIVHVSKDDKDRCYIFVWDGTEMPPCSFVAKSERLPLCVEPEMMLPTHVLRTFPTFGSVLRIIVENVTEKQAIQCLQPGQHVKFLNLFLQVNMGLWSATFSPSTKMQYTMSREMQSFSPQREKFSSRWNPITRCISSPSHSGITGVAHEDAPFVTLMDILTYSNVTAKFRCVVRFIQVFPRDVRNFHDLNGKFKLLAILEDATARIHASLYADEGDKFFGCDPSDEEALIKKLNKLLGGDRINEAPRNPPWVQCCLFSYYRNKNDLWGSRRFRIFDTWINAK

T9: AtPOT1a_N (Arabidopsis thaliana, UniProt Q56Y52 1-300)
T9 sequence: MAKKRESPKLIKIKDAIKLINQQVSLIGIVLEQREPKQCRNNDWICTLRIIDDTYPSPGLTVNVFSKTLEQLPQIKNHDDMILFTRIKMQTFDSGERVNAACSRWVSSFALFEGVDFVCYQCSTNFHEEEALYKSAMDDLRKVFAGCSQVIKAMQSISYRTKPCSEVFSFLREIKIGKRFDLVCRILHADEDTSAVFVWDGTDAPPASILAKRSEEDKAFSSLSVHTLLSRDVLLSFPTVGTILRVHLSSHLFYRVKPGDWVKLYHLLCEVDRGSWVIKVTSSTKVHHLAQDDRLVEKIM


Tests used:
Test in all cases: EMSA
[1] = target: T1, mPOT1a_N (OB-fold domains of mouse …)
AtPOT1b_N = target: T2, AtPOT1b_N
AtPOT1a = target: T3, AtPOT1a
AlPOT1a = target: T4, AlPOT1a
BoPOT1a = target: T5, BoPOT1a
AlPOT1b = target: T6, AlPOT1b
AtPOT1b = target: T7, AtPOT1b
BoPOT1b = target: T8, BoPOT1b
AtPOT1a_N = target: T9, AtPOT1a_N

Binder	binding result [1]	binding result (AtPOT1b_N)	binding result (AtPOT1a)	binding result (AlPOT1a)	binding result (BoPOT1a)	binding result (AlPOT1b)	binding result (AtPOT1b)	binding result (BoPOT1b)	binding result (AtPOT1a_N)
GGTTAGGGTTAG (ssDNA) [(GGTTAG)2 vertebrate telomere repeat]	binds								
TTTAGGGTTTAGGG (ssDNA) [(TTTAGGG)2]		no binding	no binding	no binding	no binding	no binding	no binding	no binding	no binding
CCCTAAACCCTAAACCCTAAACCCTAAACCCTAAA (ssDNA) [C-rich plant telomere repeat, five copies]			no binding				no binding		
TTTAGGGTTTAGGGTTTAGGGTTTAGGGTTTAGGG (ssDNA) [(TTTAGGG)5]		no binding	no binding	no binding	no binding	no binding	no binding	no binding	no binding
